Measurements published in patent publication US20220089730A1 (IMAGINAB, published 2022).

How the values were obtained:
[1] = target: T1, PSMA (Prostate-Specific Membrane Antigen), glutamate carboxypeptidase 2 (Homo sapiens, UniProt Q04609 1-750); assay: flow cytometry (FACS) on LNCaP-AR cells and on C4-2 XCL cells
T1 construct: also called FOLH1; target antigen expressed on LNCaP-AR cells

[2] = target: T1, PSMA (Prostate-Specific Membrane …); assay: flow cytometry (FACS) on C4-2 XCL cells

T1 sequence (Q04609 whole entry): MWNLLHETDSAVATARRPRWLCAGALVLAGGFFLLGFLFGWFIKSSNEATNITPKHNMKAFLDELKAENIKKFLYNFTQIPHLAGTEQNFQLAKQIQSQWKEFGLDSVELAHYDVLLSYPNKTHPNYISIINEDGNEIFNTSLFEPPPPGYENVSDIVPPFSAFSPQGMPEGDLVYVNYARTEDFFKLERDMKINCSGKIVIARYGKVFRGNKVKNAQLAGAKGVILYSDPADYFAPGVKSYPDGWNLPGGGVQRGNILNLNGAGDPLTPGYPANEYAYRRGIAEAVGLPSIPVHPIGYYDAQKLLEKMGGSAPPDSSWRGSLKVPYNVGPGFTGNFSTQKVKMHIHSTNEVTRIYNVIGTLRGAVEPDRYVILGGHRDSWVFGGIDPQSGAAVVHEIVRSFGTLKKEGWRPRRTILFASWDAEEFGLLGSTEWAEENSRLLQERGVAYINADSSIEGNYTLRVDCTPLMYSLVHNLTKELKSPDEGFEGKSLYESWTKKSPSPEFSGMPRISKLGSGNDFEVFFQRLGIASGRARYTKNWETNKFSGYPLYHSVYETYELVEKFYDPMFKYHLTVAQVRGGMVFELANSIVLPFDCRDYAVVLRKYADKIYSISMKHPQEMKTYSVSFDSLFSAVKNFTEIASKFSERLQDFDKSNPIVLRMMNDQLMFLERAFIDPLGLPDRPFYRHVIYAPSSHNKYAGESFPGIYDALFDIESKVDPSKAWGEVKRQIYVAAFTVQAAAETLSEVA

binding result [1]	binding result [2]	Binder
binds		IAB2M γ1 EH1 (other, Anti-PSMA minibody: homodimer of scFv-hinge-CH3) DIVMTQSPSSLSASVGDRVTITCKASQDVGTAVDWYQQKPGKAPKLLIYWASTRHTGVPDRFTGSGSGTDFTLTISSLQPEDFADYFCQQYNSYPLTFGGGTKLEIKGSTSGGGSGGGSGGGGSSEVQLVQSGAEVKKPGASVKISCKTSGYTFTEYTIHWVKQASGKGLEWIGNINPNNGGTTYNQKFEDRATLTVDKSTSTAYMELSSLRSEDTAVYYCAAGWNFDYWGQGTTVTVSSEPKSCDKTHTCPPCGGGSSGGGSGGQPREPQVYTLPPSRDELTKNQVSLTCLVKGFYPSDIAVEWESNGQPENNYKTTPPVLDSDGSFFLYSKLTVDKSRWQQGNVFSCSVMHEALHNHYTQKSLSLSPGK
binds		IAB2M γ1 EH2 (other, Anti-PSMA minibody: homodimer of scFv-hinge-CH3) DIVMTQSPSSLSASVGDRVTITCKASQDVGTAVDWYQQKPGKAPKLLIYWASTRHTGVPDRFTGSGSGTDFTLTISSLQPEDFADYFCQQYNSYPLTFGGGTKLEIKGSTSGGGSGGGSGGGGSSEVQLVQSGAEVKKPGASVKISCKTSGYTFTEYTIHWVKQASGKGLEWIGNINPNNGGTTYNQKFEDRATLTVDKSTSTAYMELSSLRSEDTAVYYCAAGWNFDYWGQGTTVTVSSEPKSSDKTHTCPPCGGGSSGGGSGGQPREPQVYTLPPSRDELTKNQVSLTCLVKGFYPSDIAVEWESNGQPENNYKTTPPVLDSDGSFFLYSKLTVDKSRWQQGNVFSCSVMHEALHNHYTQKSLSLSPGK
	binds	IAB2M γ2 EH1 (other, Anti-PSMA minibody: homodimer of scFv-hinge-CH3) DIVMTQSPSSLSASVGDRVTITCKASQDVGTAVDWYQQKPGKAPKLLIYWASTRHTGVPDRFTGSGSGTDFTLTISSLQPEDFADYFCQQYNSYPLTFGGGTKLEIKGSTSGGGSGGGSGGGGSSEVQLVQSGAEVKKPGASVKISCKTSGYTFTEYTIHWVKQASGKGLEWIGNINPNNGGTTYNQKFEDRATLTVDKSTSTAYMELSSLRSEDTAVYYCAAGWNFDYWGQGTTVTVSSERKCCVECPPCPGGGSSGGGSGGQPREPQVYTLPPSREEMTKNQVSLTCLVKGFYPSDIAVEWESNGQPENNYKTTPPMLDSDGSFFLYSKLTVDKSRWQQGNVFSCSVMHEALHNHYTQKSLSLSPGK
